The values that follow come from the nanobody polyreactivity screen of Harvey et al. (2022).

The nature of the data set: yeast display, Sf9 membrane polyspecificity reagent, FACS + sequencing; frameworks hold sequencing errors. The method, boiled down: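 Sorting gates, low and high (top ~1%), were placed on anti-HA fluorescence to track expression and on streptavidin fluorescence to track reagent binding. A clone's polyreactivity label is taken from the gate it came out of. The reagent was 10% biotinylated, detergent-solubilized Sf9 membrane, applied for 1 hour at 4 °C to galactose-induced yeast display cells.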
As for “QVQLVESGGGLVQAGGSLRLSCAASGFIFYEYAMGWYRQAPGKERELVAAITSGGSTDYADSVKGRFTISRDNANNTVYLQMNSLKPEDTAVYYCNADLFTGYYWYNYWGQGTQVTVSS”, the “polyreactivity (PSR sort gate)” value was “low polyreactivity”.
Take “QVQLVESGGGLVQAGGSLRLSCAASGFIFYGNAMGWYRQAPGKERELVAAITRRGGRTYYADSVKGRFTISRDNAKNTVYLQMNSLKPEDTAVYYCAKDRGRSLEMDYWGQGTQVTVSS”: the “polyreactivity (PSR sort gate)” value is recorded as “high polyreactivity”.
In the case of “QVQLVESGGGLVQAGGSLRLSCAASGFIFYGYDMGWYRQAPGKETELVASISVRGGDTYYADSVKGRFTISRDNAKNTVYLQMNSLKPEDTAVYDCNAEGYPGRFSYGVVYGDVGYDYWGQGTQVTVSS” it was “low polyreactivity”; in that of “QVQLVESGGGLVQAGGSLRLSCAASGFIFYIYAMGWYRQAPGKERELVAAISWNGGSTYYADSVKGRFTISRDNAKNTVYLQMNSLKPEDTAVYYCATLARYRYGTGRFDYCGQGTQVTVSS”, “high polyreactivity”; in that of “QVQLVESGGGLVQAGGSLRLSCAASGFIFYKNAMGWYRQAPGKERELVAAINFSTGRTYYADSVKGRFTISRDNAKNTVYLQMNSLKPEDTAVYDCATKSANPRKYYYWGQVTQVTVSS”, “high polyreactivity”.
As for “QVQLVESGGGLVQAGGSLRLSCAASGFIFYKNAMGWYRQAPGKERELVAAITQRGGRTYYADSVKGRFTISRDNSKNTVYLQMNSLKPEDTAVYYCAAKALYGKQAWRYNYWGQGTQVTVSS”, the “polyreactivity (PSR sort gate)” value is recorded as “high polyreactivity”.
Take “QVQLVESGGGLVQAGGSLRLSCAASGFIFYKYTMGWYRQAPGKERELVAAISTSGGRTYYADSVKGRFTISRDNAKNTVYLQMNSLKPEDTAVYYCAAQYSYPYYKVTLYYWGQGTQVTVSS”: the “polyreactivity (PSR sort gate)” value is on record as “high polyreactivity”.
Regarding “QVQLVESGGGLVQAGGSLRLSCAASGFIFYLYARGWYRQAPGKERELVAAITRRGGSTYYADSVKGRFTISRDIAKNTFYLQMNSLKPEDTAVYYCAADHYGFFSAGDFDYWGQGTQVTVSS”, the “polyreactivity (PSR sort gate)” value is “high polyreactivity”.
“QVQLVESGGGLVQAGGSLRLSCAASGFIFYLYTMGWYRQAPGTEMEVVAAITQSGTRTYYADSVKGRFTISRDNAKNTVYLQMNSLKPVDTAVYYCAAEWGSSYRWGMDYWGQGTQVTVSS”: the “polyreactivity (PSR sort gate)” value is given as “high polyreactivity”.
For “QVQLVESGGGLVQAGGSLRLSCAASGFIFYNYAMGWYRQAPGKERELVAAITGGGSTNYADSVKGRFTISRDNAKNTVYLQMNSLKPEDTAVYYCAAEEGPPWSRYDYWGQGTQVTVSS”, the “polyreactivity (PSR sort gate)” value is listed as “low polyreactivity”.
As to “QVQLVESGGGLVQAGGSLRLSCAASGFIFYPYAMGWYRQAPGKERELVASIYSGGRTYYADSVKGRFTISRDNAKHTVYLQMNSLKPEDTAVYYCNARSRYFGYDYWGQGTQVTVSS”, the “polyreactivity (PSR sort gate)” value is “high polyreactivity”.
For the sequence “QVQLVESGGGLVQAGGSLRLSCAASGFIFYPYAMGWYRQAPGKERELVASIYSGGRTYYADSVKGRFTISRDNAKNTVYLQMNSLKPEDTAVYYCNARSRYFGYDYWGQGTQVTVSS”, the “polyreactivity (PSR sort gate)” value is “high polyreactivity”.
Turning to “QVQLVESGGGLVQAGGSLRLSCAASGFIFYPYAMGWYRQAPGKERELVAVITSGGRTYYADSVKGRFTISRDNAKNTVYLQMNSLKPEDTAVYYCAARYGSIHWKANWPEYGYWGQGTQVTVSS”, the “polyreactivity (PSR sort gate)” value is on record as “low polyreactivity”.
As to “QVQLVESGGGLVQAGGSLRLSCAASGFIFYPYAMGWYRQATGKETELVAAITWSGGTTTYADSEKGRFTISRDNAKNTVYLQMNSLKPEDTAVYSCAALWYYGRYPYDYWGQGTQVTVSS”, the “polyreactivity (PSR sort gate)” value was “high polyreactivity”.
The same measure for “QVQLVESGGGLVQAGGSLRLSCAASGFIFYQYAMGWYRQAPGKERELVAAISRSGGSTYYADSVKGRFTISRDNAKNTVYLQMNSLKPEDTAVYYCNAVYRSIRPRYDYWGQGTQVTVSS”: “high polyreactivity”.
The same measure for “QVQLVESGGGLVQAGGSLRLSCAASGFIFYRNAMGWYRQAPGKERELVAAISQRGGRTYADSVKGRFTISRDNAKNTVYLQMNSLKPEDTAFYYCAADGARLSQTTRRFDYWGQGTQVTVSS”: “low polyreactivity”; for “QVQLVESGGGLVQAGGSLRLSCAASGFIFYRNTMGWYRQAPGKERELVAANSVSGGSTNYADSVKGRFTISRDNAKNTVYLQMNSLKPEDSAVYYCAARVRDSLVYGGWDDYWGQGTQVTVSS”: “high polyreactivity”.
On to “QVQLVESGGGLVQAGGSLRLSCAASGFIFYRYAKGWYRQPPGKERELVAAITKSGTSTYYADSVKGRFTISRDNAKNTVYLQMNSLKPEDTAVYYCNADVRSRSRGSSGYDYWGQGTQVTVSS”, for which the “polyreactivity (PSR sort gate)” value is reported as “low polyreactivity”.
“QVQLVESGGGLVQAGGSLRLSCAASGFIFYRYAMGWYRPAPGKERELVAAISRSGGTTYYADSVKGRFTISRDNAKNTVYLQMNSLKPEETAVYYCAAVGTVSRTVGYKYWGQGTQVTVSS”: the “polyreactivity (PSR sort gate)” value is listed as “high polyreactivity”.
In the case of “QVQLVESGGGLVQAGGSLRLSCAASGFIFYRYAMGWYRQAPGKERELVAAISSSGGSTYYADSVKGRFTISRDNAKNTVYLQMNSLKPEDTAVYYCAAEPSGKRSKFYYWGQGTQVTVSS” it was “high polyreactivity”.
For “QVQLVESGGGLVQAGGSLRLSCAASGFIFYRYAMGWYRQAPGKERELVAAITGGGSTYYADSVKGRFTISRDNAKNNFYLQMNSLKPEDTAVYYCAARKRYWFTPYDYWGQGTQVTVSS”, the “polyreactivity (PSR sort gate)” value is “high polyreactivity”.
The same measure for “QVQLVESGGGLVQAGGSLRLSCAASGFIFYRYAMGWYRQAPGKERELVASITRSGGSTYYADSVKGRFTISRDNAKNTVYLQMNCLKPEDTAVYYCAADRYLGTYRYRYDYWGQGTQVTVSS”: “high polyreactivity”; for “QVQLVESGGGLVQAGGSLRLSCAASGFIFYRYLMGWYRQAPGKERELVAAISRSGDRTYYADSVKGRFTISRDNAKNTVYLQMNSLKPEDTAVYDCAAALYYFSRGYWGQGTQVTVSS”: “high polyreactivity”; for “QVQLVESGGGLVQAGGSLRLSCAASGFIFYSNAMGSYRQAPGKERELVASITGDGGTTYYADSVKGRFTISRDNAKTTGYLEMNSLKPEDTAVYYCAKDYIYRGYYTDFRYEDYDYWGQGTQVTVSS”: “low polyreactivity”.
In the case of “QVQLVESGGGLVQAGGSLRLSCAASGFIFYSNAMGWYSQAPGKVRELVAAISRGGGSTYYADSVKGRFTISRDNAKNTVYLQMNSLKPEDTAVYYCAKRRLSPQDDYWGQGTQVTLSS” it was “high polyreactivity”.
On to “QVQLVESGGGLVQAGGSLRLSCAASGFIFYSYTMGWYRQAPGKERELVATISSNGGRTYYADSVKGRFTISRDNAKNTVYLQMNSLKPEDTAVYYCATDVPHGYYWSYGDYYWGQGTQVTVSS”, for which the “polyreactivity (PSR sort gate)” value is recorded as “low polyreactivity”.
With “QVQLVESGGGLVQAGGSLRLSCAASGFIFYTYTRGWSRQAHGKERELVAAISYSGGRTYSADSVKGRFTISRDNAKNTVYLQMNSLKPEDTAVYYCAARRYYNSVANENNYWGQGTQVTVSS”, the “polyreactivity (PSR sort gate)” value is reported as “high polyreactivity”.
On to “QVQLVESGGGLVQAGGSLRLSCAASGFIFYYAMGWYRPAPGKERELVAGITESDGSTNYADSVKGRFTISRDNAKNTVYLQMNSLKPEDTAVYYCAKDASSLRFDYWGQGTQVTVSS”, for which the “polyreactivity (PSR sort gate)” value is on record as “low polyreactivity”.
As to “QVQLVESGGGLVQAGGSLRLSCAASGFIFYYAMGWYRQAPVKERELVAAISRGGSTNYADSVKGRFTISRDNAKNTVYLQMNSLKPEDTAVYYCNARVYSSRARWGTYDYWGQGTQVTVSS”, the “polyreactivity (PSR sort gate)” value is listed as “high polyreactivity”.
In the case of “QVQLVESGGGLVQAGGSLRLSCAASGFIFYYNAMGWYRQAPGKERELVAAISTDGGSTYYADSVKGRFTISRDNAKNTVYLQMNSLNPEDTAVYYCAAKRYKRYDYWGQGTQVTVSS” it was “low polyreactivity”.
In the case of “QVQLVESGGGLVQAGGSLRLSCAASGFIFYYNAMGWYRQAPGKERELVAAITRSGGSTFYADSVKGRFTISRDNAKNTVYLQMNSLKPEDTAVYYCAAKGNPYRVPGSSYPKVNYWGQGTQVTVSS”, the “polyreactivity (PSR sort gate)” value is listed as “high polyreactivity”.
Take “QVQLVESGGGLVQAGGSLRLSCAASGFIFYYNAMGWYRQAPGKERELVATIRGSGGSTYYADSVKGRFTISRDNAKNTVYLQMNSLKPEDTAVYYCATTIYGLTSRLYYWGQGTQVTVSS”: the “polyreactivity (PSR sort gate)” value is “high polyreactivity”.
With “QVQLVESGGGLVQAGGSLRLSCAASGFIFYYNTMGWYRQAPGKERELVAAINSGGSTYYADSVKGRFTISRDNAKNTVYLQMNSLKPEDTAVYYCAKRYAVSSRYYYWGQGTQVTVSS”, the “polyreactivity (PSR sort gate)” value is on record as “high polyreactivity”.
In the case of “QVQLVESGGGLVQAGGSLRLSCAASGFIFYYNTMVWYRQAPGKERELVASITWSGDTTYYADSVKGRFTISRDNAKNTVYLQMNSLKPEDTAVYYCAAVHYYPYRRYDYWGQGTQVTVSS” it was “low polyreactivity”; in that of “QVQLVESGGGLVQAGGSLRLSCAASGFIFYYYAMGWYRQAPGKERELVAAISKSGGSTYYADSVKGRFTISRDNAKKTVYLQMNSLIPEDTAVYYCAAVVTTWPYYGFGYWGQGTQVTVSS”, “high polyreactivity”.
As to “QVQLVESGGGLVQAGGSLRLSCAASGFIFYYYAMGWYRQAPGKERELVAAISSGDDTTYADSVKGRFTISRDNAKNTVYLKMNSLKPEDTAVYYCNSERSVKQQGPYGYWGQGTQVTVSS”, the “polyreactivity (PSR sort gate)” value is reported as “low polyreactivity”.
The same measure for “QVQLVESGGGLVQAGGSLRLSCAASGFIFYYYAMGWYRQAPGKERELVAAISWSGGSTYYADSVKGRFTISRDNAKNTVYLQMNSLKPEDTAVYDCAVSRDSYGGKGSFLYDYWGQGTQVTVSS”: “low polyreactivity”; for “QVQLVESGGGLVQAGGSLRLSCAASGFIFYYYAMGWYRQAPGKERELVAGITATGGSTYYEDSVKGRFTISRDNAKNTVYLQMNSLKPEDTAVYYCAAEHGRRATYTWWVIYDYWGQGTQVTVSS”: “low polyreactivity”; for “QVQLVESGGGLVQAGGSLRLSCAASGFIFYYYAMGWYRQAPGKERELVARISRVGSTYYADSVKGRFTISRDNAKNTVYLQINSLKPEDTAVYYCAKVSIARIKTRYNYWGQATQVTVSS”: “high polyreactivity”.
In the case of “QVQLVESGGGLVQAGGSLRLSCAASGFIGIYAMGWYRQAPGKERELVAAITTSGGRTYYADSVKGRFTISRDNAKNTVYLQMNSLKPEDTAVYYCAADYQAYTAEDKVIVWYDYWGQGTQVTVSS” it was “low polyreactivity”.
